Results: PMC6877644

Key:
[1] = target: T1, JASPer (Drosophila melanogaster) (UniProt Q9VAA9); assay: nucleosome library pull-down with sequencing; design: dose or concentration left out as unconfirmed; details: H3K36me3; scale: fold enrichment over unmodified nucleosome
T1 sequence: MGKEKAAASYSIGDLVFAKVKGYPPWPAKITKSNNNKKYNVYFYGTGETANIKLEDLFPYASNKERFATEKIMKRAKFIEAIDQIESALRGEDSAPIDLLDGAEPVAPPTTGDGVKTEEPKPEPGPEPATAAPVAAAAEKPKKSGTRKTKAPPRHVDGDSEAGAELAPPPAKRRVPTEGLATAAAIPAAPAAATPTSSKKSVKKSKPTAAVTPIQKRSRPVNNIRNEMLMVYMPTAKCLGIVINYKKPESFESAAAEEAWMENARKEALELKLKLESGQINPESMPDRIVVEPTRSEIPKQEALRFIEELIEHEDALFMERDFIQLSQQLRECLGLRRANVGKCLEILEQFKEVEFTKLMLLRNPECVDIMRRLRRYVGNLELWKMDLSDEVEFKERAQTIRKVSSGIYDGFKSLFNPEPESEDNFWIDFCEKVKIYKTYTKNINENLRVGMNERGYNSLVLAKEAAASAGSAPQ

[2] = target: JASPer (untagged, in JJ-complex);JIL-1 (Drosophila melanogaster;Drosophila melanogaster) (UniProt Q9V3I5); assay: nucleosome library pull-down with sequencing; details: H3K36me3; DNA EMSA: 50 mM HEPES pH 7.6, 50 mM NaCl, 10% glycerol, 2 mM MgCl2, 10% BSA, RT 10 min; RNA EMSA: 25 mM HEPES pH 7.6, 100 mM KCl, 3 mM MgCl2, 1 mM DTT, 5% …; scale: fold enrichment over unmodified nucleosome
[3] = target: JASPer-FLAG (D. melanogaster); assay: pull-down; 1.5 pmol FLAG-tagged JASPer or JJ-complex pre-coupled to FLAG-M2 beads, incubated with 1.38 pmol library of 115 DNA-barcoded nucleosome types (12 fmol each) in 200 µL 20 mM Tris/Cl pH 7.5, 50 mM NaCl, 5 mM EDTA, 0.1% TWEEN 20, 4 h at 4 °C; read out by sequencing of the barcodes, relative to the unmodified nucleosome set to 1
[4] = target: JASPer-JIL-1 (JJ)-complex (FLAG-JIL-1 and untagged JASPer) (D. melanogaster) (UniProt Q9V3I5); assay: as above
JASPer-JIL-1 (JJ)-complex (FLAG-JIL-1 and untagged JASPer) (D. melanogaster), sequence (Q9V3I5 whole entry, one chain of several): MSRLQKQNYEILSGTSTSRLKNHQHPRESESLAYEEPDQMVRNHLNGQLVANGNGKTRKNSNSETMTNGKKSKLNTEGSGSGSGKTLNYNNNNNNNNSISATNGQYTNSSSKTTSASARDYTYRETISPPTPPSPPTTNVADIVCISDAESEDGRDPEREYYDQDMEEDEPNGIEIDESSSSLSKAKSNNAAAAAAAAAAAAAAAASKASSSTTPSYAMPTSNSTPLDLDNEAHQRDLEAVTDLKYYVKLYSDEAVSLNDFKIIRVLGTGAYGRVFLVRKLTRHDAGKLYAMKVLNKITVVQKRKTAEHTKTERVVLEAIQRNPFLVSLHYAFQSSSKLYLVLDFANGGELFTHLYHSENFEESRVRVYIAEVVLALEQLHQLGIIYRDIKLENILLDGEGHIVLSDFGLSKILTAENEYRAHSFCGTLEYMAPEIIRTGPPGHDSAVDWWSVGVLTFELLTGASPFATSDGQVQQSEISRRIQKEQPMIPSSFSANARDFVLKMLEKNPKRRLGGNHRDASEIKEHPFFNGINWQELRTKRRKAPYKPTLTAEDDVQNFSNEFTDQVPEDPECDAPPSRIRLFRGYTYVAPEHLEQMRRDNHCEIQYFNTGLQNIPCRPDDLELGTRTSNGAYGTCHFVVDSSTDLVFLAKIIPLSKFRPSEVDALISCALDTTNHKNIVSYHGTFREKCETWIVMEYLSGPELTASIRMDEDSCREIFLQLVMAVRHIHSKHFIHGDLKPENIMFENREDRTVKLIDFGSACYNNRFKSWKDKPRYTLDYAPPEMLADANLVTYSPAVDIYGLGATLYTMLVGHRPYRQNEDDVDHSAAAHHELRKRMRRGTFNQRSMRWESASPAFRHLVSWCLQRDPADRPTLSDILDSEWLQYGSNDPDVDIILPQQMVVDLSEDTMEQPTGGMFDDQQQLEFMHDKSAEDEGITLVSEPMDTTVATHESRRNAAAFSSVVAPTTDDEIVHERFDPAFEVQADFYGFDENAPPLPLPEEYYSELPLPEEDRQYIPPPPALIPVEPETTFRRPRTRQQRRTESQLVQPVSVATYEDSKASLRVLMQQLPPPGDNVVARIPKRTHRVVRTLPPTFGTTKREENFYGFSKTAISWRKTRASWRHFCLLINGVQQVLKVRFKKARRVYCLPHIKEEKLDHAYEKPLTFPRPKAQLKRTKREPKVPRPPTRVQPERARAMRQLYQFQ

JASPer (untagged, in JJ-complex);JIL-1 (Drosophila melanogaster;Drosophila melanogaster), sequence (Q9V3I5 whole entry, looked up, one chain of several): as the sequence (Q9V3I5 whole entry, one chain of several) above

Substance	binding signal [1]	binding signal [2]	fold enrichment relative to the unmodified nucleosome [3] [fold]	fold enrichment over the unmodified nucleosome [4] [fold]
H3K36me3 mononucleosome (barcoded library)	40	70		
nucleosome bearing the single H3K36me3 modification (complex)			40	70
